Measured values reported in the supplement of paper PMC10567573.

B1: PDZK1 (parent)
chain: RETASLKLLPHQPRIVEMKKGSNG
B2: DVL3 (parent)
chain: FCADNPSELPPPMERTGGIGDSRP

Variants of: B1
Assay: protein stability index of a GFP-peptide fusion (GPS, HEK-293T) (PSI 1-6); higher = more stable
Details: c terminus: a fixed tail appended
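Further: lentivirally expressed fusions sorted by FACS into six bins by GFP to DsRed ratio, PSI derived from sequencing read proportions per bin multiplied by bin number.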

Row | Variant | protein stability index
1 | RETYSLKLLPHQPRIVEMKKGSNG | 3.19
2 | RETCSLKLLPHQPRIVEMKKGSNG | 3.12
3 | RETRSLKLLPHQPRIVEMKKGSNG | 3.88
4 | RETKSLKLLPHQPRIVEMKKGSNG | 3.79
5 | RETMSLKLLPHQPRIVEMKKGSNG | 3.27
6 | RETLSLKLLPHQPRIVEMKKGSNG | 3.05
7 | RETQSLKLLPHQPRIVEMKKGSNG | 3.29
8 | RETFSLKLLPHQPRIVEMKKGSNG | 2.66
9 | RETWSLKLLPHQPRIVEMKKGSNG | 2.37
10 | RETGSLKLLPHQPRIVEMKKGSNG | 3.17
11 | RETISLKLLPHQPRIVEMKKGSNG | 2.47
12 | RETTSLKLLPHQPRIVEMKKGSNG | 3.32
13 | RETESLKLLPHQPRIVEMKKGSNG | 3.43
14 | RETDSLKLLPHQPRIVEMKKGSNG | 3.15
15 | RETVSLKLLPHQPRIVEMKKGSNG | 3.21
16 | RETPSLKLLPHQPRIVEMKKGSNG | 3.8
17 | RETSSLKLLPHQPRIVEMKKGSNG | 3.17
18 | RETNSLKLLPHQPRIVEMKKGSNG | 3.81
19 | RETASDKLLPHQPRIVEMKKGSNG | 3.53
20 | RETASEKLLPHQPRIVEMKKGSNG | 3.95
21 | RETASAKLLPHQPRIVEMKKGSNG | 3.66
22 | RDTASLKLLPHQPRIVEMKKGSNG | 3.4
23 | RYTASLKLLPHQPRIVEMKKGSNG | 2.64

Row | Variant | protein stability index
24 | RWTASLKLLPHQPRIVEMKKGSNG | 2.36
25 | RPTASLKLLPHQPRIVEMKKGSNG | 3.65
26 | RNTASLKLLPHQPRIVEMKKGSNG | 3.57
27 | RKTASLKLLPHQPRIVEMKKGSNG | 3.58
28 | RVTASLKLLPHQPRIVEMKKGSNG | 2.62
29 | RATASLKLLPHQPRIVEMKKGSNG | 2.73
30 | RRTASLKLLPHQPRIVEMKKGSNG | 3.63
31 | RITASLKLLPHQPRIVEMKKGSNG | 2.23
32 | RQTASLKLLPHQPRIVEMKKGSNG | 3.73
33 | RMTASLKLLPHQPRIVEMKKGSNG | 3.08
34 | RFTASLKLLPHQPRIVEMKKGSNG | 3.45
35 | RTTASLKLLPHQPRIVEMKKGSNG | 3.39
36 | RSTASLKLLPHQPRIVEMKKGSNG | 3.62
37 | RCTASLKLLPHQPRIVEMKKGSNG | 2.1
38 | RETAYLKLLPHQPRIVEMKKGSNG | 2.47
39 | RETAGLKLLPHQPRIVEMKKGSNG | 3.26
40 | RETAILKLLPHQPRIVEMKKGSNG | 2.82
41 | RETANLKLLPHQPRIVEMKKGSNG | 2.93
42 | RETALLKLLPHQPRIVEMKKGSNG | 3.73
43 | RETAELKLLPHQPRIVEMKKGSNG | 3.61
44 | RETAFLKLLPHQPRIVEMKKGSNG | 1.88
45 | RETACLKLLPHQPRIVEMKKGSNG | 3.2
46 | RETAKLKLLPHQPRIVEMKKGSNG | 2.67

Row | Variant | protein stability index
47 | RETAVLKLLPHQPRIVEMKKGSNG | 3.32
48 | RETATLKLLPHQPRIVEMKKGSNG | 3.39
49 | RETADLKLLPHQPRIVEMKKGSNG | 3.77
50 | RETAWLKLLPHQPRIVEMKKGSNG | 2.36
51 | RETAQLKLLPHQPRIVEMKKGSNG | 3.44
52 | RETAPLKLLPHQPRIVEMKKGSNG | 3
53 | RETARLKLLPHQPRIVEMKKGSNG | 3.38
54 | RETAHLKLLPHQPRIVEMKKGSNG | 2.98
55 | QETASLKLLPHQPRIVEMKKGSNG | 3.4
56 | KETASLKLLPHQPRIVEMKKGSNG | 3.67
57 | LETASLKLLPHQPRIVEMKKGSNG | 3.65
58 | VETASLKLLPHQPRIVEMKKGSNG | 3.14
59 | PETASLKLLPHQPRIVEMKKGSNG | 3.24
60 | YETASLKLLPHQPRIVEMKKGSNG | 3.14
61 | TETASLKLLPHQPRIVEMKKGSNG | 2.98
62 | CETASLKLLPHQPRIVEMKKGSNG | 3.34
63 | GETASLKLLPHQPRIVEMKKGSNG | 2.8
64 | SETASLKLLPHQPRIVEMKKGSNG | 3.41
65 | NETASLKLLPHQPRIVEMKKGSNG | 3.8
66 | DETASLKLLPHQPRIVEMKKGSNG | 3.19
67 | EETASLKLLPHQPRIVEMKKGSNG | 3.36
68 | HETASLKLLPHQPRIVEMKKGSNG | 3.14
69 | AETASLKLLPHQPRIVEMKKGSNG | 3.58

Row | Variant | protein stability index
70 | WETASLKLLPHQPRIVEMKKGSNG | 2.09
71 | FETASLKLLPHQPRIVEMKKGSNG | 2.99
72 | METASLKLLPHQPRIVEMKKGSNG | 2.38
73 | REMASLKLLPHQPRIVEMKKGSNG | 3.14
74 | REAASLKLLPHQPRIVEMKKGSNG | 3.26
75 | REVASLKLLPHQPRIVEMKKGSNG | 3.25
76 | RESASLKLLPHQPRIVEMKKGSNG | 3.62
77 | REHASLKLLPHQPRIVEMKKGSNG | 3.31
78 | REYASLKLLPHQPRIVEMKKGSNG | 3.02
79 | REGASLKLLPHQPRIVEMKKGSNG | 3.27
80 | REFASLKLLPHQPRIVEMKKGSNG | 3.08
81 | RERASLKLLPHQPRIVEMKKGSNG | 3.28
82 | REQASLKLLPHQPRIVEMKKGSNG | 3.41
83 | REEASLKLLPHQPRIVEMKKGSNG | 3.65
84 | REPASLKLLPHQPRIVEMKKGSNG | 3.75
85 | REIASLKLLPHQPRIVEMKKGSNG | 3.6
86 | RECASLKLLPHQPRIVEMKKGSNG | 2.35
87 | REKASLKLLPHQPRIVEMKKGSNG | 3.53
88 | REWASLKLLPHQPRIVEMKKGSNG | 2.58
89 | REDASLKLLPHQPRIVEMKKGSNG | 3.39

Variants of: B2
Assay: as above
Details: c terminus: a fixed tail appended

Row | Variant | protein stability index
90 | FCADNPSELPPPMERTGGVGDSRP | 5.09
91 | FCADNPSELPPPMERTGGRGDSRP | 4.74
92 | FCADNPSELPPPMERTGGWGDSRP | 3.51
93 | FCADNPSELPPPMERTGGSGDSRP | 5.22
94 | FCADNPSELPPPMERTGGTGDSRP | 4.31
